# Measured values taken from IntAct's records for PubMed 31696227.
# B1: Transcription factor ATOH7 (Homo sapiens), Q8N100 (parent)
# chain: MKSCKPSGPPAGARVAPPCAGGTECAGTCAGAGRLESAARRRLAANARERRRMQGLNTAFDRLRRVVPQWGQDKKLSKYETLQMALSYIMALTRILAEAERFGSERDWVGLHCEHFGRDHYLPFPGAKLPGESELYSQRLFGFQPEPFQMAT
# partner: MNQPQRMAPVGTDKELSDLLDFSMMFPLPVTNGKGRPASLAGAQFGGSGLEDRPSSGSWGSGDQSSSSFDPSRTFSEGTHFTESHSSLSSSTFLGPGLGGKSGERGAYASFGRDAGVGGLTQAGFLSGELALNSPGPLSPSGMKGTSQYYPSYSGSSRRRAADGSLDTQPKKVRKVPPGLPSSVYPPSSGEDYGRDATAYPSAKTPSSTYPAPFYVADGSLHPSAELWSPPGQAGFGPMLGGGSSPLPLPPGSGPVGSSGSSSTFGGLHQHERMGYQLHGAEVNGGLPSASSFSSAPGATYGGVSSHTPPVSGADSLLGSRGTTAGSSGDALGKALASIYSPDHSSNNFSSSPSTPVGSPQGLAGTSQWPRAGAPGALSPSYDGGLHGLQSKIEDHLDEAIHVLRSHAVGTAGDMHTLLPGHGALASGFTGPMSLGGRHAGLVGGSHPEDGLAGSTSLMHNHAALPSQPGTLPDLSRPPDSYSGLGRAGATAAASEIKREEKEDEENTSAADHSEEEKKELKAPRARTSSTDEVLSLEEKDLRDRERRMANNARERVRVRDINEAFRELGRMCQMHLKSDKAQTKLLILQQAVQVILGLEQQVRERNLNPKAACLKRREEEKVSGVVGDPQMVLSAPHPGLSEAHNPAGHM
# Variants of: B1
# Details: with TCF3, P15923-2
row,effect of a mutation on the interaction,Variant
1,decreasing interaction strength,A59G
2,disrupting interaction strength,A59T
3,disrupting interaction strength,A59V
4,disrupting interaction strength,N46H
